Positions of bridges follow the written chain, without caps; N, C: chain ends. No end group written: not given here.
B1: ACE-2 binding polypeptide YEDCIGHALFCMTF (peptide)
peptide: YEDCIGHALFCMTF
modifications: not fully specified (N-terminus, C-terminus, bridges); cysteine pairing not given here
B2: ACE-2 binding polypeptide FSPCKALRHSPWWVCPSG (peptide)
peptide: FSPCKALRHSPWWVCPSG
modifications: not fully specified (N-terminus, C-terminus, bridges); cysteine pairing not given here
B3: ACE-2 binding polypeptide DQNCFAMYCFEF (peptide)
peptide: DQNCFAMYCFEF
modifications: not fully specified (N-terminus, C-terminus, bridges); cysteine pairing not given here
B4: ACE-2 binding polypeptide DDDCGWIGFANFHLCLHG (peptide)
peptide: DDDCGWIGFANFHLCLHG
modifications: not fully specified (N-terminus, C-terminus, bridges); cysteine pairing not given here
B5: ACE-2 binding polypeptide DDHCEWASYWKWDLCLHD (peptide)
peptide: DDHCEWASYWKWDLCLHD
modifications: not fully specified (N-terminus, C-terminus, bridges); cysteine pairing not given here
B6: ACE-2 binding polypeptide EGNCFLIGPWCFEF (peptide)
peptide: EGNCFLIGPWCFEF
modifications: not fully specified (N-terminus, C-terminus, bridges); cysteine pairing not given here
B7: ACE-2 binding polypeptide YDNCLGLANLNFCFDF (peptide)
peptide: YDNCLGLANLNFCFDF
modifications: not fully specified (N-terminus, C-terminus, bridges); cysteine pairing not given here

target: T1, FLAG-tagged ACE-2 target (human, UniProt Q9BYF1 18-740); experiment: phage ELISA on FLAG-ACE-2
T1 construct: range 1-740; obtained from Human Genome Sciences, Inc; also called FLAG-ACE-2; tagged human ACE-2; not shown: FLAG tag
Description: Phage enriched from the third round of selection were screened by ELISA for strong ACE-2 binders. Immulon 2 96-well plates (Dynatech) were coated with streptavidin for 1 hour at 37° C. and subsequently coated with anti-FLAG antibody for 1 hour at room temperature. Half of the plates were further coated with FLAG-ACE-2 as the target plates, and the other half of the plates were coated with FLAG peptide as background plates. The amount of each protein or peptide coated was 100 ng per well. The coated plates were then incubated for 1 hour at room temperature with 1:2 diluted overnight phage cultures that were made by inoculating phage from individual plaques into bacterial host cells. After being washed 7 times with PBST, the plates were incubated with HRP-conjugated anti-M13 antibody (Pharmacia) for 1 hour at room temperature, washed 5 times, developed with TMB peroxidase substrate solution (Kirkegaad & Perry Laboratories, Gaithersburg, Md.), and read at 630 nm on an ELISA plate reader.

T1 sequence (Q9BYF1 18-740 limits assumed): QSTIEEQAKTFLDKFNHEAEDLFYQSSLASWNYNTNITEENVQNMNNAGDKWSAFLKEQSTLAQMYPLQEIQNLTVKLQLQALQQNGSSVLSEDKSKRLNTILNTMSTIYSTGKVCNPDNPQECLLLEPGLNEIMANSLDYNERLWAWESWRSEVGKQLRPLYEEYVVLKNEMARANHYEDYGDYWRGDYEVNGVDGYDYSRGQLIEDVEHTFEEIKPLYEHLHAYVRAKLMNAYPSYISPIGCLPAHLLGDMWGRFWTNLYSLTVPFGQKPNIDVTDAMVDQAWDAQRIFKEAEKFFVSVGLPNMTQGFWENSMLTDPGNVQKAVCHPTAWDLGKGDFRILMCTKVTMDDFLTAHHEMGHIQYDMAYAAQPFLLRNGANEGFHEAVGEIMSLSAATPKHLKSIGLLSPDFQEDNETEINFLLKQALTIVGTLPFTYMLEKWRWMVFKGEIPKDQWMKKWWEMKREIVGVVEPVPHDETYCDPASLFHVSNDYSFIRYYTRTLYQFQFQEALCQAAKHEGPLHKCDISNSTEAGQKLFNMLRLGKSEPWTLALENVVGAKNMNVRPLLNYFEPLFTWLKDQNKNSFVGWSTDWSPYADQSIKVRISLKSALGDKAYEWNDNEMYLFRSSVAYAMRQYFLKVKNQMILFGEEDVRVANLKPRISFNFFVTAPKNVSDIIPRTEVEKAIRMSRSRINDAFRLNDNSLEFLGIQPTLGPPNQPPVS

Binding result, binds:
LHDCFIYADYEYCFDF (not fully specified (bridges); cysteine pairing not given here) [ACE-2 binding polypeptide LHDCFIYADYEYCFDF]
HIECEEWGYWCIEM (not fully specified (bridges); cysteine pairing not given here) [ACE-2 binding polypeptide HIECEEWGYWCIEM]
FDDCQTSWFQGFWLCIDD (not fully specified (bridges); cysteine pairing not given here) [ACE-2 binding polypeptide FDDCQTSWFQGFWLCIDD]
B1
NADCEWVNFNHVDLCMWN (not fully specified (bridges); cysteine pairing not given here) [ACE-2 binding polypeptide NADCEWVNFNHVDLCMWN]
B2
NWNCLGTNELQFCLDF (not fully specified (bridges); cysteine pairing not given here) [ACE-2 binding polypeptide NWNCLGTNELQFCLDF]
DDVCENADFAWLGWCMHF (not fully specified (bridges); cysteine pairing not given here) [ACE-2 binding polypeptide DDVCENADFAWLGWCMHF]
SNDCVWLQFWGGDMCFLP (not fully specified (bridges); cysteine pairing not given here) [ACE-2 binding polypeptide SNDCVWLQFWGGDMCFLP]
B3
NLDCIYLQNHSYCFDF (not fully specified (bridges); cysteine pairing not given here) [ACE-2 binding polypeptide NLDCIYLQNHSYCFDF]
DNLCMSGGSFDYCFDF (not fully specified (bridges); cysteine pairing not given here) [ACE-2 binding polypeptide DNLCMSGGSFDYCFDF]
GGQCGTSYLFCIDF (not fully specified (bridges); cysteine pairing not given here) [ACE-2 binding polypeptide GGQCGTSYLFCIDF]
AWDCEWNLFDSTFFCPGF (not fully specified (bridges); cysteine pairing not given here) [ACE-2 binding polypeptide AWDCEWNLFDSTFFCPGF]
DDVCYSLIMADYCLDF (not fully specified (bridges); cysteine pairing not given here) [ACE-2 binding polypeptide DDVCYSLIMADYCLDF]
PNQCGVDIWALFCVDF (not fully specified (bridges); cysteine pairing not given here) [ACE-2 binding polypeptide PNQCGVDIWALFCVDF]
B4
YNFCMLIGERDYCLDF (not fully specified (bridges); cysteine pairing not given here) [ACE-2 binding polypeptide YNFCMLIGERDYCLDF]
DFGCNAMFCVEF (not fully specified (bridges); cysteine pairing not given here) [ACE-2 binding polypeptide DFGCNAMFCVEF]
NPECGALFCMEF (not fully specified (bridges); cysteine pairing not given here) [ACE-2 binding polypeptide NPECGALFCMEF]
NHHCLEFSSFEYCFDF (not fully specified (bridges); cysteine pairing not given here) [ACE-2 binding polypeptide NHHCLEFSSFEYCFDF]
DDDCMMLPLTMFCFDF (not fully specified (bridges); cysteine pairing not given here) [ACE-2 binding polypeptide DDDCMMLPLTMFCFDF]
B5
DDYCFNISSYSYCFDF (not fully specified (bridges); cysteine pairing not given here) [ACE-2 binding polypeptide DDYCFNISSYSYCFDF]
DDKCFGWAHFCFDF (not fully specified (bridges); cysteine pairing not given here) [ACE-2 binding polypeptide DDKCFGWAHFCFDF]
HLDCYNLVDNMFCFDF (not fully specified (bridges); cysteine pairing not given here) [ACE-2 binding polypeptide HLDCYNLVDNMFCFDF]
B6
KFECMPSSLFCVDF (not fully specified (bridges); cysteine pairing not given here) [ACE-2 binding polypeptide KFECMPSSLFCVDF]
WEDCLWIGMMCVEF (not fully specified (bridges); cysteine pairing not given here) [ACE-2 binding polypeptide WEDCLWIGMMCVEF]
NDYCTVFTGALFCLDF (disulfide 4-13 (inferred); not fully specified (N-terminus, C-terminus)) [ACE-2 binding polypeptide NDYCTVFTGALFCLDF]
YFACTNNDSYLFCLDF (not fully specified (bridges); cysteine pairing not given here) [ACE-2 binding polypeptide YFACTNNDSYLFCLDF]
B7
SDYCVGNNAVTYCFDF (not fully specified (bridges); cysteine pairing not given here) [ACE-2 binding polypeptide SDYCVGNNAVTYCFDF]
YSGCADMYMFCIDF (not fully specified (bridges); cysteine pairing not given here) [ACE-2 binding polypeptide YSGCADMYMFCIDF]
GSDCEWVNFTMFQMCISN (not fully specified (bridges); cysteine pairing not given here) [ACE-2 binding polypeptide GSDCEWVNFTMFQMCISN]
FHDCSWGPWGPWEICTRL (not fully specified (bridges); cysteine pairing not given here) [ACE-2 binding polypeptide FHDCSWGPWGPWEICTRL]

Source: US20030138894A1 (Human Genome Sciences, published 2003)
